System: SKM9-2
Test: Deglycosylation analysis: western blotting using SKM9-2 of neuraminidase-treated cell lysates
Type: binding
Settings: full-length HEG1, lysates of ACC-MESO4 (native) or HEG1-transfected HEK293T, 6% SDS-PAGE
Description: Figure 8 SKM9-2 epitope produced from mesothelioma cells. (a) Chromatogram of SKMepmin3 separation using anion exchange column. SKMepmin3 produced from HEK293T (blue line) or ACC-MESO4 (pink line) was affinity-purified using SKM9-2-immobilized resins and separated by Mini Q 4.6/50 PE. A major peak of SKMepmin3 purified from HEK293T contained two disialyl T antigens (Fig. 6). (b) Western blotting for epitope-fused GPI-anchor protein (7.6231) treated with neuraminidases. Cell lysate of 7.6231-transfected ACC-MESO1 (top panel), ACC-MESO4 (middle panel), or HEK293T (lower panel) was treated with α2-3 Neuraminidase S or Neuraminidase A, resolved by 4–15% SDS-PAGE, and analyzed by western blotting using SKM9-2. (c) Western blotting for full-length HEG1 treated with neuraminidases. Cell lysates of ACC-MESO4 (upper panel) and HEG1-transfected HEK293T (lower panel) were treated with α2-3 Neuraminidase S or Neuraminidase A and analyzed by 6% SDS-PAGE and western blotting using SKM9-2. (d) Schematic of SKM9-2 epitope. Full-length blots are presented in Supplementary Fig. S10.
Monolayer cells were solubilized with 20 mM Tris buffer (pH 8.0) containing 1% SDS, 1 mM phenylmethylsulfonyl fluoride, 125 mU/mL Benzonase Nuclease (Merck Millipore Co., Tokyo, Japan) (25 µL/cm^2 culture surface area). The lysate (10 µL/lane) was resolved by SDS-PAGE under reducing conditions using 6% polyacrylamide gels or 4–15% precast gels (Bio-Rad Laboratories Inc., Hercules, CA, USA). Then it was transferred to a polyvinylidene difluoride membrane (Immobilon-P; Merck Millipore Co.) by semi-dry blotting in a buffer containing 25 mM Tris, 192 mM glycine, 0.1% SDS, and 20% methanol. The membrane was blocked with 5% non-fat milk in 20 mM Tris-buffered saline (pH 7.2) containing 0.1% Tween 20 and reacted with 1 µg/mL of mAb SKM9-2 or anti-FLAG (Anti-DYKDDDDK tag mAb; 1E6, Wako Pure Chemical Industries, Osaka, Japan). After washing, it was treated with horseradish peroxidase-conjugated goat anti-mouse IgG (Jackson ImmunoResearch, West Grove, PA, USA), and developed with Amersham ECL select (GE Healthcare, Buckinghamshire, UK). Although glycan in non-fat milk often interferes the glycan-dependent binding of an antibody, the SKM9-2 binding was not affected by the blocking using non-fat milk, in comparison with 5% bovine serum albumin (Supplementary Fig. S6).
Cell lysate or SKMepmin3 was treated with α2-3 Neuraminidase S, α2-3, 6, 8, 9 Neuraminidase A, and O-Glycosidase (New England Biolabs Japan, Tokyo, Japan) in 50 mM sodium phosphate (pH 7.5) containing 1% Nonidet P-40, according to the manufacturer’s instructions. The cell lysate sample was resolved by 4–15% or 6% SDS-PAGE under reducing conditions and detected by western blotting using SKM9-2. The analysis of the SKMepmin3 sample was performed by SPR.

B1: recombinant HEG1: full-length recombinant HEG1 (1-1481) expressed in HEK293T (protein, UniProt Q9ULI3 1-1381, looked up)
chain: MASPRASRWPPPLLLLLLPLLLLPPAAPGTRDPPPSPARRALSLAPLAGAGLELQLERRPEREPPPTPPRERRGPATPGPSYRAPEPGAATQRGPSGRAPRGGSADAAWKHWPESNTEAHVENITFYQNQEDFSTVSSKEGVMVQTSGKSHAASDAPENLTLLAETADARGRSGSSSRTNFTILPVGYSLEIATALTSQSGNLASESLHLPSSSSEFDERIAAFQTKSGTASEMGTERAMGLSEEWTVHSQEATTSAWSPSFLPALEMGELTTPSRKRNSSGPDLSWLHFYRTAASSPLLDLSSSSESTEKLNNSTGLQSSSVSQTKTMHVATVFTDGGPRTLRSLTVSLGPVSKTEGFPKDSRIATTSSSVLLSPSAVESRRNSRVTGNPGDEEFIEPSTENEFGLTSLRWQNDSPTFGEHQLASSSEVQNGSPMSQTETVSRSVAPMRGGEITAHWLLTNSTTSADVTGSSASYPEGVNASVLTQFSDSTVQSGGSHTALGDRSYSESSSTSSSESLNSSAPRGERSIAGISYGQVRGTAIEQRTSSDHTDHTYLSSTFTKGERALLSITDNSSSSDIVESSTSYIKISNSSHSEYSSFFHAQTERSNISSYDGEYAQPSTESPVLHTSNLPSYTPTINMPNTSVVLDTDAEFVSDSSSSSSSSSSSSSSGPPLPLPSVSQSHHLFSSILPSTRASVHLLKSTSDASTPWSSSPSPLPVSLTTSTSAPLSVSQTTLPQSSSTPVLPRARETPVTSFQTSTMTSFMTMLHSSQTADLKSQSTPHQEKVITESKSPSLVSLPTESTKAVTTNSPLPPSLTESSTEQTLPATSTNLAQMSPTFTTTILKTSQPLMTTPGTLSSTASLVTGPIAVQTTAGKQLSLTHPEILVPQISTEGGISTERNRVIVDATTGLIPLTSVPTSAKEMTTKLGVTAEYSPASRSLGTSPSPQTTVVSTAEDLAPKSATFAVQSSTQSPTTVSSSASVNSCAVNPCLHNGECVADNTSRGYHCRCPPSWQGDDCSVDVNECLSNPCPSTAMCNNTQGSFICKCPVGYQLEKGICNLVRTFVTEFKLKRTFLNTTVEKHSDLQEVENEITKTLNMCFSALPSYIRSTVHASRESNAVVISLQTTFSLASNVTLFDLADRMQKCVNSCKSSAEVCQLLGSQRRIFRAGSLCKRKSPECDKDTSICTDLDGVALCQCKSGYFQFNKMDHSCRACEDGYRLENETCMSCPFGLGGLNCGNPYQLITVVIAAAGGGLLLILGIALIVTCCRKNKNDISKLIFKSGDFQMSPYAEYPKNPRSQEWGREAIEMHENGSTKNLLQMTDVYYSPTSVRNPELERNGLYPAYTGLPGSRHSCIFPGQYNPSFISDESRRRDYF
modifications: full-length FLAG tag
notes: full-length recombinant HEG1 (1-1481) expressed in HEK293T
In the case of B1, the “SKM9-2 binding (western blot)” value (Neuraminidase A) is reported as “lost” and the “SKM9-2 binding (western blot)” value (α2–3 Neuraminidase S) is reported as “weakened”.
